Reference: paper PMC3658276, “Plant stem cell maintenance involves direct transcriptional repression of differentiation program”

T1: WUSCHEL (His-WUS) (UniProt Q9SB92 1-292)
T1 sequence: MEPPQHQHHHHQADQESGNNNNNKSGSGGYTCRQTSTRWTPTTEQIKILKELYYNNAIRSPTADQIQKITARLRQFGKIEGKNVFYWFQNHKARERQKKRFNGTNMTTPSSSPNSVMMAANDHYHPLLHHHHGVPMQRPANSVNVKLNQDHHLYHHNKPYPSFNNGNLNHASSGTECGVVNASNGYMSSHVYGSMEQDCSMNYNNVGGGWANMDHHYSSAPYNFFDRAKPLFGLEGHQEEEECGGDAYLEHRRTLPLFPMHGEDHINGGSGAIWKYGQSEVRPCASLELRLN


Target: T1, WUSCHEL (His-WUS)
Assay: EMSA; supershift with anti-WUS antibody; EMSA conditions not given; as in Yadav et al 2011
Settings: protein: recombinant; tags: His; chain copies: 2; (radiolabeled)

Binder	binding result
KAN1 -1100 oligo (dsDNA) DNA 1: TACTGATATTTAATGTATATTTATCTCT DNA 2: AGAGATAAATATACATTAAATATCAGTA	binds
KAN1 1050 oligo (dsDNA) DNA 1: TCTTACACTAATACTATATTTACACATG DNA 2: CATGTGTAAATATAGTATTAGTGTAAGA	binds
